The values below come from paper PMC10214526 (ACS Central Science, 2023).

Where no end group is shown, it is not given here.

The target in test [1] is T1, GABARAP(ΔG116)–NHNH methyl-fumarate 2 (UniProt O95166 1-115, C-terminal acyl hydrazide: -NHNH methyl fumarate (mimics the native glycine G116)).
T1 construct: GABARAP; GABARAP(ΔG116): the C-terminal glycine G116 is deleted, so the chain ends at residue 115; it may fit a chain without the first methionine (surmised); also called probe 2; GABARAP methyl fumarate; not shown: Mxe GyrA intein, C-terminal, cleaved
Briefly: cross-linking; competition: probe 2 (15 μM) incubated with ATG3 C1 in the presence of increasing amounts of LIR^ATG3 peptide; GABARAP–ATG3 C1 complex quantified by gel densitometry, normalized to the reaction without peptide; IC50 by nonlinear regression. The conditions noted are these: both partners purified.

The target of test [2] is T2, GABARAP (UniProt O95166 2-116).
T2 construct: GABARAP as used in fluorescence polarization and in the cocrystal
Briefly: fluorescence polarisation; fluorescein-modified LIR^ATG3 peptide (linear, cyclized or truncated 103–111) with GABARAP or LC3A; triplicates; KD by nonlinear regression. As to conditions: both partners purified. In general terms: Polarisation of emitted light reports the rotation of a fluorescent probe.

T1 sequence (O95166 1-115, stated change not applied): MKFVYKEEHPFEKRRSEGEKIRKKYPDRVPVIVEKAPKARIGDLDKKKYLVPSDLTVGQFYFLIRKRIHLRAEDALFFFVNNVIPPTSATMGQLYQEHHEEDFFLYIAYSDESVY
T2 sequence (O95166 2-116): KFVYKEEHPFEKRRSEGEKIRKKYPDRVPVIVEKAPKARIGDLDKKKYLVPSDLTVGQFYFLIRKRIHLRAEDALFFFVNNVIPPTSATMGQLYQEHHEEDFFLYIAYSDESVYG

B1: LIR (L94-H112) peptide 5 (peptide, UniProt Q9NT62 94-112, looked up)
peptide: LEAIIEEDDGDGGWVDTYH
notes: ATG3, human, LIR motif stretch L94-H112; also called linear LIR^ATG3 peptide 5; source: synthetic peptide (chemically prepared)
A word on the IC50: it is the concentration at which inhibition is half-maximal. Consider B1, for which, in test [1], the 50% inhibitory concentration (IC50) worked out at 104 µM.

B2: Cyclic peptide 6 (peptide)
chain: LEAIIEEDDGDGGWVDTYHC
modifications: thioether (positions not given here); not fully specified (bridges); also: cyclized by selective cysteine alkylation, partner of Cys not given here
As for B2, in test [1], the IC50 worked out at 24 µM.

B3: fluorescein-modified truncated (103–111) LIR^ATG3 peptide (peptide, UniProt Q9NT62 103-111, looked up)
peptide: GDGGWVDTY
modifications: also: fluorescein, position not given here
notes: ATG3, human, amino acids G103-Y111 including the core LIR motif; also called truncated peptide
For the molecule B3, the binding result in test [2] is “binds”.
